According to publication PMC10509265:

Target: IP3R-type 2 (UniProt Q9Z329)
Experiment: anti-IP3R2 co-IP from heart lysate
Conditions: reference: wild type heart after TAC; sites S14

Substance: Bcl-xL (from UniProt Q64373) S14A knock-in heart after TAC
- binding against the reference: stronger
